We go through four molecules from patent US20140004122A1 (published 2014).

The target in assay [1] is T1, cynomolgus monkey PCSK9, V5- and 6xHis-tagged (cynomolgus monkey, UniProt A0A7N9D9N8 150-747).
T1 construct: also called cPCSK9-V5-6xHIS; cPCSK9; not shown: V5 tag and 6xHis tag
The assay is described as follows: BIAcore SPR; antibody amine-coupled to CM5 chip, PCSK9 injected as analyte; pH 7.4.

Assay [2] deals with T1, cynomolgus monkey PCSK9, V5- and …. Put plainly: KinExA solution equilibrium; free antibody captured on PCSK9-coated beads; cPCSK9 concentration adjusted to 50% active. On the technique in general: A kinetic exclusion assay measures how much of one partner remains free in solution.
From the text: (§1) Equilibrium dissociation constant (KD) were obtained from nonlinear regression of the two sets of competition curves using a one-site homogeneous binding model. The KinExA® Pro software was employed in the analysis.
The next assay deals with T2, PCSK1 (R&D Systems) (UniProt P29120 111-753, limits assumed).
T2 sequence (looked up): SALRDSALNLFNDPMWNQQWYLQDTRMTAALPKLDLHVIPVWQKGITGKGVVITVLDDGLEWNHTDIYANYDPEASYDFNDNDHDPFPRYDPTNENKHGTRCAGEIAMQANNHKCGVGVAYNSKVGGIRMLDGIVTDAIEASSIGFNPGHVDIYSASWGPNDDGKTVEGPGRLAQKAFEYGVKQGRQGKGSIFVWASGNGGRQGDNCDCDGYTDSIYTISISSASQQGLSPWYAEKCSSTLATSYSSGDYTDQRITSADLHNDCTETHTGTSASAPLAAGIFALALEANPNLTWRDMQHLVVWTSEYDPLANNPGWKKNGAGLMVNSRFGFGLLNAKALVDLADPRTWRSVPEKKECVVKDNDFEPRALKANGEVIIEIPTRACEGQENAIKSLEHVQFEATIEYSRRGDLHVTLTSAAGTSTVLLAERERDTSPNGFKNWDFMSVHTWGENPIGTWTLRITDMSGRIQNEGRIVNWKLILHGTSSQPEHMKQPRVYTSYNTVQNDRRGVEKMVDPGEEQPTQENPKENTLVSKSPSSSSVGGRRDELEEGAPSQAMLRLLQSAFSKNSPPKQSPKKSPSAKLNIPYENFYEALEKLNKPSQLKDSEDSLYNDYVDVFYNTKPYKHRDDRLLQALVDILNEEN
The assay is described as follows: competition ELISA: 11F1 (0.4 µg/mL) pre-incubated with soluble convertase, then binding to plate-captured biotinylated PCSK9. On the technique in general: An ELISA detects its analyte on a solid surface through an enzyme-linked reagent.

A further assay deals with T3, PCSK7 (R&D Systems) (UniProt Q16549 142-667, limits assumed).
T3 sequence (looked up): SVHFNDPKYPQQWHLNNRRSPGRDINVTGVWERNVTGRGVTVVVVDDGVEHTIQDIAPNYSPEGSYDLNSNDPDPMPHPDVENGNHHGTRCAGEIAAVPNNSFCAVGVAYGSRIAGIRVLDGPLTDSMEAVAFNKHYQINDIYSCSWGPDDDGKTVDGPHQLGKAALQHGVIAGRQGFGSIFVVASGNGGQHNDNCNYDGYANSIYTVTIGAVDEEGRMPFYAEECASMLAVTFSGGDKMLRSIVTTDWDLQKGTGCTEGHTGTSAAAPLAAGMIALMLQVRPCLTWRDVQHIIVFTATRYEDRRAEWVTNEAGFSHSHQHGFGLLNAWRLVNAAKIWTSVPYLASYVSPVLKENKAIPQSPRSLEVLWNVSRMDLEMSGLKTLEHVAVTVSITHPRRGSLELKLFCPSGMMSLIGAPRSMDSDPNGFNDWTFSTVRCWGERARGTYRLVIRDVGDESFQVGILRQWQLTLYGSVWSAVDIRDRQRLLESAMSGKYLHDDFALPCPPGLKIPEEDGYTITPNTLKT
The description is as above.

The target of assay [3] is T1, cynomolgus monkey PCSK9, V5- and …. Put plainly: KinExA solution equilibrium; free antibody captured on PCSK9-coated beads; cPCSK9 concentration adjusted to 50% active. The source holds these as a separate data set.
From the text: as §1
The target is the same in assay [4]. Put plainly: BIAcore solution equilibrium; PCSK9 mixed with 21B12.1, free PCSK9 measured on immobilised 21B12. In general terms: SPR reads the build-up and loss of mass on a sensor chip optically.

B1: 31H4 anti-PCSK9 human IgG4 antibody (from hybridoma) (antibody, V domains shown)
VH: EVQLVESGGGLVKPGGSLRLSCAASGFTFSSYSMNWVRQAPGKGLEWVSSISSSSSYISYADSVKGRFTISRDNAKNSLYLQMNSLRAEDTAVYFCARDYDFWSAYYDAFDVWGQGTMVTVSS
VL: QSVLTQPPSVSGAPGQRVTISCTGSSSNIGAGYDVHWYQQLPGTAPKLLISGNSNRPSGVPDRFSGSKSGTSASLAITGLQAEDEADYYCQSYDSSLSGSVFGGGTKLTVLQ
notes: also called 31H4.1; 31H4 IgG4
Usually Kd stands for the free concentration of one partner at which half of the binding sites on the other are occupied at equilibrium, for simple one-to-one binding. As to B1, the Kd worked out at 0.19 nM in assay [1] and 2 pM in assay [2].

B2: 11F1 anti-PCSK9 antibody (antibody, V domains shown)
VH: EVQLVESGGGLVQPGGSLRLSCAASGFTFSNYWMSWVRQAPGKGLEWVASIKQDGSEKYYVDSVKGRFAISRDNAKNSLFLQMNSLRAEDTAVYYCARDLVLMVYDIDYYYYGMDVWGQGTTVTVSS
VL: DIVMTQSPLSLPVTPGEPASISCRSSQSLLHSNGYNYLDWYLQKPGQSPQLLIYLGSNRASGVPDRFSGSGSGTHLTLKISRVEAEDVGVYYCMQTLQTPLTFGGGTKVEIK
notes: It was detected with anti-human Fc, so it is a whole human antibody
For B2, the binding result with PCSK1 (R&D Systems) and with PCSK7 (R&D Systems) was “no binding (tested: 0 to 20 µg/mL)” in each case.

B3: 16F12 anti-PCSK9 human IgG4 antibody (antibody, V domains shown)
VH: QVHLVESGGGVVQPGRSLRLSCAASGFTFNSFGMHWVRQAPGKGLEWVALIWSDGSDEYYADSVKGRFTISRDNSKNTLYLQMNSLRAEDTAVYYCARAIAALYYYYGMDVWGQGTTVTVSS
VL: QSVLTQPPSVSAAPGQKVTISCSGSSSNIGNNFVSWYQQLPGTAPKLLIYDYNKRPSGIPDRFSGSKSGTSATLGITGLQTGDEADYYCGTWDSSLSAYVFGTGTRVTVLQ
notes: also called 16F12.1; 16F12, anti-PCSK9 huIgG4
For B3, the values for the Kd in assay [1] and in assay [3] were 0.87 nM and 0.016 nM, respectively.

B4: 21B12 anti-PCSK9 human IgG4 antibody (from hybridoma) (antibody, V domains shown)
VH: QVQLVQSGAEVKKPGASVKVSCKASGYTLTSYGISWVRQAPGQGLEWMGWVSFYNGNTNYAQKLQGRGTMTTDPSTSTAYMELRSLRSDDTAVYYCARGYGMDVWGQGTTVTVSS
VL: QSALTQPASVSGSPGQSITISCTGTSSDVGGYNSVSWYQQHPGKAPKLMIYEVSNRPSGVSNRFSGSKSGNTASLTISGLQAEDEADYYCNSYTSTSMVFGGGTKLTVLQ
notes: also called 21B12.1; 21B12 IgG4
B4: the values for the Kd in assay [1] and in assay [4] were 0.36 nM and 0.011 nM, respectively.
